Results on 41 sequences are retold here after the nanobody polyreactivity screen of Harvey et al. (2022).

This data set in a line: yeast display, Sf9 membrane polyspecificity reagent, FACS + sequencing; frameworks hold sequencing errors. In short, it runs like this: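 Genes from sorted yeast were amplified by colony PCR, read by MiSeq 2 × 250 sequencing and filtered on CDR length. These cells carried a synthetic nanobody library in Saccharomyces cerevisiae BJ5465 and were sorted by FACS into low and high (top ~1%) gates on anti-HA and streptavidin fluorescence. Polyreactivity is labelled according to the gate of origin.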
Turning to “QGQRVESGGGLVQAGGSLLLSCAASGLTFAKYAMGWDRQAPGKERELVSTITWSGATTYYADSVKGRFTISRDYAKNTVYLQMNSLKPEDTAVYYCIADLPVYVDYIIGGYGYWGQGTQVTVSS”, the “polyreactivity (PSR sort gate)” value is on record as “low polyreactivity”.
“QGQRVESGGGLVQAGGSLRLSCAASGFIFWDYDMVWYRQAPGKEREMVAAISDSGGDTYYADSVKGRFTISRDNSKNTVYLQMHSLKREDTAVIYCAADVELWVFRGQQFDYWGQGTQVTVSS”: the “polyreactivity (PSR sort gate)” value is listed as “low polyreactivity”.
Consider “QGQRVESGGGLVQAGGSLRLSCAASGLIFSRYGMGWYRPARGKDRELVAAISGGGGSTYYADSVKGRFTISRDNAKNTVYLEMNSLKPEDTAVYYCARKYTRKIPASDYWGQGTQVTVSS”, for which the “polyreactivity (PSR sort gate)” value is given as “high polyreactivity”.
Turning to “QGQRVESGGVLVQAGGSLRLRCAASGSTFSRYDMGWYRQAPGKERELVATITRAGRTYYADSVKGRFTISRDNAKNTVYLQMNSLIPEDTAVYYCAAELYYWTYVRFDYWGQGTQVTVSS”, the “polyreactivity (PSR sort gate)” value is listed as “low polyreactivity”.
In the case of “QHQLEESGGGLVQAGGSLRLSFAAYGFIFGRYTMGWYRQAPVKERELVAAISSRGGSTYYADSVKGGFTISRDYAKYTVYLQMNSLNPEDTAVYSCNALRRPSSEGRDYWGQGTQVTVSS” it was “high polyreactivity”; in that of “QHQLVESGAALVQAGGSLLVICAASVFTFPFYTMGWYRQAPGKEMELVAAISTSGAGTYYAESVKGRFTISRDNAKNTVYLQMNSLKTEDTAVYYCAAYKRGRREMDYWGQGTQVTVSS”, “high polyreactivity”.
For “QHQLVESGGGLFQAGGSLRLSCAPSGSIIVWNAMGWYRQAPGKERELVASMTSGASTYYADSGKGRVTISRDNAKNTVYLQMNSLKPEDTAVYYCAAYYGYTDGWYLYSGYNYWGQGTQVTVSS”, the “polyreactivity (PSR sort gate)” value was “low polyreactivity”.
In the case of “QLHLVESGGGLVQAGGSLRLSCAASGRIFFYAMGWYRQAPGKERDLVASITTSGTSTYYADSVKGRFTISRDNSKNTVYLEMNSLKPEDTSVYYCNATSNSIRWYDFYYWGQGTQVTVSS”, the “polyreactivity (PSR sort gate)” value is “low polyreactivity”.
“QLQHVESGGCLVQAGASLRLSCAASRLIFFYYAMGWSRQAPGKERELVAAIRTNYADSVKGRITSSRDNAKNTVYLQMNSQKPEDTAVYYCAAESSQSPTSAFDYWGQGTQVTVSA”: the “polyreactivity (PSR sort gate)” value is recorded as “low polyreactivity”.
Turning to “QLQHVESGGGLVQAGGSLRLSCADSGFILYLNAMGWYRQAPGKERELVATITNRGGSTYYADTVKGRFTISRDNAKNTVYLQMNSLKPEDTAVYYCAARTRERYSKPYFYRRFGYWGQGTQVTVSS”, the “polyreactivity (PSR sort gate)” value is “low polyreactivity”.
“QLQHVESGGGLVQAGGSLRLTCAASGYTYHGYAMGWYRQAPGKERELVAVITQRGGSTSYADSVKGSFTISRDYAKNNVNLQMKSLKPVDTAVYYCNDSAWLVVARTRYGYWGQGTQVTVSS”: the “polyreactivity (PSR sort gate)” value is “low polyreactivity”.
Next, “QLQLEESGGGLVQAGGTLRISCEASGSTFRPYAMGAYRKAPGQEREMVARITGSGDSTYYADSVKGRFTISRDNAQNTVYLQMNSLKPEDNAVYYCARDFDYSLSGFEYWGQGTQVTVSS”: “low polyreactivity”; “QLQLLESDGGLVQAGVSLRLSCATSAMTISRYTMGWYRQAPGKARELVAVITYRGGSTYYADSVKGRFTISRDNAKNTVYLQMNSLKPEDTAVYYCAAGRRTYGLTYDYWGQGTQVTVSS”: “high polyreactivity”.
For “QLQLQESGGGLVQAGGSLRLSCAASAFIFARNYMGWYRQAPGKERELVAGIGVGASTNYADSVKGRFTISRDNAKNTVYLQMNSLEPEDTAVYYCAVGDTVLGYHYYWGQGTQVTVSN”, the “polyreactivity (PSR sort gate)” value is given as “low polyreactivity”.
Regarding “QLQLQESVGGLVQAGGSLRLSCAAIGNIFPTDRMGWYSQSPGKELEFVATISHGGSTNNADSVKGRFTISRDNGKNTVYLKMNSLKPEVTAVYYCAVWSLGRWRNYYWGQGSQVTVSS”, the “polyreactivity (PSR sort gate)” value is given as “low polyreactivity”.
Turning to “QLQLVDSGGGLVQAGGSLRLSCAATGFTFYYYVMGWYRQAPGKETELVAAISSRGGSTYYADSVKGRFTISRDNAKNTVYLQMNSLKPEDTAVYYCAATYWPYRPGYYYWGQGTQVTVSS”, the “polyreactivity (PSR sort gate)” value is recorded as “high polyreactivity”.
As for “QLQLVESGAGLVQAGGSLRLSCAASGRIFAYNTMGRYRQAHGKERELVAVITSGGSTNYADYVKGRFTISRDNAKNTVYLQMNSLKPEDTAVYYCAKRPYGGSGGYRYDYWGQGTQVTVSS”, the “polyreactivity (PSR sort gate)” value is “high polyreactivity”.
With “QLQLVESGGGIVQAGGSLRLSCAASGSIFPYNAMGWYRQAPGKEREFVAAINLSGGSTNYADSVKGRFTISRDNANYTFYLQMNSLKPEDTAVYYCNAPVVYFLPLNFDYWGQGTKVTVSS”, the “polyreactivity (PSR sort gate)” value was “low polyreactivity”.
Next, “QLQLVESGGGLDQAGCSLRLSCAASRTIITRNAMGWYRPAPGKESELVASINSGGSTYYADSVKGRFTISRDNAKNTVYLQMNSLKPDDTAVYYCAVEEDRYYYDDYDYWGQGTQVTVSS”: “low polyreactivity”; “QLQLVESGGGLDQAGGSLRLSCAASGSIFPGYAMGWYRQAPGKESELVATITWSGGSTYYADSVKGRFTISRDNAKNTVYLQMNSLKPEDTAVYYCNADSNWYYQWNYYGLYDYWGQGTQVTVSS”: “low polyreactivity”.
In the case of “QLQLVESGGGLGQSGGSIRLSCAASGFIFPVYTMGRSRQAPGKERELVAAITQIGGSTHYADSVKGRFTISRDNAKNTVYLQMNSLKPEDTAVYYCNAVPSYGTEYDYWGQGTQVTVSS”, the “polyreactivity (PSR sort gate)” value is on record as “low polyreactivity”.
Next, “QLQLVESGGGLLQAGGSLRLSCAASGSTFVSNAMGWYRQAPGKERELVATITTSGGSTYYADSVKGRFRNSRDNAKTTVYLQMNSLNPEDTAVYYCNAVYLFCYSGDLDYWGQGTQVTVSS”: “low polyreactivity”; “QLQLVESGGGLVKAGGSLRLSCAASGFIFNCYAMGWNRQAPVKEREMVARISRSGGSTYYADSVKGRFTISRDNAKNTVYLQMNSLKPEDTAVYYCAADYYWSLHQRMDYWGQGTQVTVSS”: “high polyreactivity”; “QLQLVESGGGLVQAGGRLRLSCAASGFIFHINARGWYRQAPGKEREFVAAISRSVGSTSYADTVKGRFTNSRDNAKNTVYLLMNSLKPEDTAVYYCNAALRKRKGPYDYWGQGTQVTVSS”: “high polyreactivity”.
On to “QLQLVESGGGLVQAGGSLRFSCAASGFTFVWYVRGWYRQAPVKARELVASSTSTGSTNYADSVKGRYTISRDNAKNTVYLQMNSLKPEDTAVYYCNARGSYKRTRYGKWGQGTQVTVSS”, for which the “polyreactivity (PSR sort gate)” value is “high polyreactivity”.
Turning to “QLQLVESGGGLVQAGGSLRLICAASGLTFVHYTMGWYRQAPGKERELVAAISWNGASTYYADSVKGRFTISRDNAKNTVDIQMNSLKPEDTAVYYCAAGYAQPRYYTDYYWGEGTQVTVSS”, the “polyreactivity (PSR sort gate)” value is given as “high polyreactivity”.
In the case of “QLQLVESGGGLVQAGGSLRLSCAASGFTFSYYAKGWYRQAPGKERELVAAISINGGRTYYADSVKGRFTISRDNAKNTVYLQMNSLKPEDTAVYYCNAVSYAYTVRMDYWGQGTQVTVSS” it was “high polyreactivity”; in that of “QLQLVESGGGLVQAGGSLRLSCAASGFTFYLYVLGWYRQAPGKEREFVAAITGSGTSTYYADSVKGRFTISRDNAKNTVYLQMNSLKPEDTAVYYCNAKRDRYFYTVKYDYWGQGTQVTVSS”, “low polyreactivity”.
Turning to “QLQLVESGGGLVQAGGSLRLSCAASGFTFYRYAKGWYRQAPGKARELVAAISWSGGTTYFADSVKGRFTISRDNAKNTVYLQMNSLTPEDTAVEYCNARFIARSGYKVDYDYWGQGTQVTVSS”, the “polyreactivity (PSR sort gate)” value is reported as “high polyreactivity”.
Next, “QLQLVESGGGLVQAGGSLRLSCAASGGPFRPYAMGWYRQAPGKERELVAAISYTGSTYYADSVKGRFTISRDNAKNTVYLQMNSLKPEDTAVYYCAKDFWYPPRFDYWGQGTQVTVSS”: “low polyreactivity”.
For the sequence “QLQLVESGGGLVQAGGSLRLSCAASGGTFYTNAMGRYRQAPGKEREFVAAISWIGGSTRYADSVKGRFTISRDNAKNTVYLQMNSLKPEDTEVYFCAAEDVFWVGEYYYEMDYWGQGTQVTVSS”, the “polyreactivity (PSR sort gate)” value was “high polyreactivity”.
As for “QLQLVESGGGLVQAGGSLRLSCAASGIIFDFYAMGWYRQAPGKERELVAAITSSGGSTYYADSVKGRFTISRDNAKNTVYLQMNSLKPEDTAVYYCAADPWFYGYYDMDYWGQGTQVTVSS”, the “polyreactivity (PSR sort gate)” value is “low polyreactivity”.
Next, “QLQLVESGGGLVQAGGSLRLSCAASGITFYGYAMGWYRQAPGKERELVAAISSRGGSTYYADSVKGRFTISRDNAKNTVYLQMNRLKPEDTAVYYCAAVYYTGEYYYWGQGTQVTVSS”: “high polyreactivity”; “QLQLVESGGGLVQAGGSLRLSCAASGLIFYDNMGWYRQAPGKERELVAAISSSGGSTSYADSVKGRFTISRDNAKNTVYLHMNSLKPEDTAVYYCAADSYPAYLGFVGFDYWGQGTQVTVSS”: “low polyreactivity”; “QLQLVESGGGLVQAGGSLRLSCAASGLTFYWYAMGWYRQAPGKERELVAAITSTGSTYYADSVKGRFTISRDNAKNTVYLQMNILKPEDTAVYYCNADFPANWGWDYDYWGQGTQVTVSS”: “low polyreactivity”.
Turning to “QLQLVESGGGLVQAGGSLRLSCAASGRTFFKYVMGWYRQAPGKERELVAAISYRSGSTYYADSVKGRFTISRDNAKNTVYLQMNSLKPEDTAVYYCAKEPPPVKGDYWGQGTQVTVSS”, the “polyreactivity (PSR sort gate)” value was “low polyreactivity”.
Next, “QLQLVESGGGLVQAGGSLRLSCAASGRTFPGNAMGWYRQEPGKERELVATITWSSGRTHYADSVKGRFTISRDNAKNTVYLQMNSLKPEDTAVYYCAAKWIVAVGGFYYWGQGTQVTVSS”: “low polyreactivity”; “QLQLVESGGGLVQAGGSLRLSCAASGRTFVYNVMGWYRQAPGKERELVAAISSGGSTNYADSVKGRFTNSRDNAKNTVYLQMNRLKPEDSAVYYCNAGTLNYRYRWGHYYDSWGQGTQVTVSS”: “low polyreactivity”.
Regarding “QLQLVESGGGLVQAGGSLRLSCAASGSIFKPYALRCYIQAPGKERELVAAITRSGGSTYYADSVKGRFTISRDNAKNTVYLQMNSLKPEDTAVYYCAAGNAPYYRFGSKKYGYWGQGTQVTVSS”, the “polyreactivity (PSR sort gate)” value is “high polyreactivity”.
In the case of “QLQLVESGGGLVQAGGSLRLSCAASGSILGSYAMGWYRQAPGKERELVAAITRRGSSTYYADSVKGRFTISRDNAKNTVYLQMNSLKPEDTAVYYCAVYRRWYSGLYDYWGQGTQVTVSS” it was “high polyreactivity”; in that of “QLQLVESGGGLVQAGGSLRLSCAASGSIYYEKVMGWYRQAPGKERELVAGISRSGGRTYYADSVKGRFTISRDNAKNTVYLQMNSLKPEDTAVYYCAALTPRNRYRKFDYWGQGTQVTVSS”, “high polyreactivity”.
